Results from patent publication US20210253679A1 (NATIONAL RESEARCH COUNCIL OF CANADA, published 2021).
Changes are numbered by the printed parent chain.

Columns and labels:
human serum albumin [1] = target: T1, human serum albumin (human, UniProt P02768 25-609); assay: SPR, single-concentration injection over an HSA surface
T1 construct: also called HSA

human serum albumin [2] = target: T1, human serum albumin; assay: SPR, single cycle kinetics, pH 7.4
rhesus serum albumin [3] = target: T2, rhesus serum albumin (rhesus, UniProt Q28522 17-600); assay: SPR, single cycle kinetics, pH 7.4
T2 construct: also called RhSA

rat serum albumin [4] = target: T3, rat serum albumin (rat, UniProt P02770 25-608); assay: SPR, single cycle kinetics, pH 7.4
T3 construct: also called RSA

human serum albumin [5] = target: T1, human serum albumin; assay: SPR, single cycle kinetics, pH 7.4; remark: listed apart in the source
rhesus serum albumin [6] = target: T2, rhesus serum albumin; assay: SPR, single cycle kinetics, pH 7.4; remark: listed apart in the source
rat serum albumin [7] = target: T3, rat serum albumin; assay: SPR, single cycle kinetics, pH 7.4; remark: listed apart in the source
mouse serum albumin [8] = target: T4, mouse serum albumin (mouse, UniProt P07724 25-608); assay: ITC, pH 7.4
T4 construct: also called MSA

human serum albumin [9] = target: T1, human serum albumin; assay: SPR, single cycle kinetics, pH 5.5
rhesus serum albumin [10] = target: T2, rhesus serum albumin; assay: SPR, single cycle kinetics, pH 5.5
rat serum albumin [11] = target: T3, rat serum albumin; assay: SPR, single cycle kinetics, pH 5.5
human serum albumin [12] = target: T1, human serum albumin; assay: SPR, single cycle kinetics, pH 5.5; remark: listed apart in the source
rhesus serum albumin [13] = target: T2, rhesus serum albumin; assay: SPR, single cycle kinetics, pH 5.5; remark: listed apart in the source
rat serum albumin [14] = target: T3, rat serum albumin; assay: SPR, single cycle kinetics, pH 5.5; remark: listed apart in the source
mouse serum albumin [15] = target: T4, mouse serum albumin; assay: SPR, single cycle kinetics, pH 7.4

T4 sequence (P07724 25-608 limits assumed): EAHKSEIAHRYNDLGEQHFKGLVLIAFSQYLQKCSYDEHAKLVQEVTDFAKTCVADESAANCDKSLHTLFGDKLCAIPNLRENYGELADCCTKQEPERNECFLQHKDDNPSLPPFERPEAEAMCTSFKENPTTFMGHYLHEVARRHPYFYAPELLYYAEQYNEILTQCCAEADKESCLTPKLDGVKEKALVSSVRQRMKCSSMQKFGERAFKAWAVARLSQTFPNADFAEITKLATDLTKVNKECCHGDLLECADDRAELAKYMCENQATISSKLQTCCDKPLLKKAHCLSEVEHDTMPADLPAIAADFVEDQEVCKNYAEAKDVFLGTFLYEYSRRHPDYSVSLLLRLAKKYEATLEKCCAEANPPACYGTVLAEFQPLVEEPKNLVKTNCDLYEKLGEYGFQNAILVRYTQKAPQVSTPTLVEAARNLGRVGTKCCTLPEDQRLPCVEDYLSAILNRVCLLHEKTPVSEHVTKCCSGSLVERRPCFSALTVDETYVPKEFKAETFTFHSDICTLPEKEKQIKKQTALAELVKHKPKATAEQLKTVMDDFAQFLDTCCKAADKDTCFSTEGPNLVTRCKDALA

B1: B39-R11 (bispecific antibody, not shown: small tags and cut ends)
chain: QVQLVESGGGLVQAGGSLRLSCAASGLTFSRYVMGWFRQAPGKEREFVAAITWGGTPNYADSVKGRFTISRDNSKNTQYLQMNSLKPEDTAVYYCAAGLGWDSRYSQSYNYWGQGTQVTVSSGGGGSGGGGSGGGGSGGGGSGGGGSQVKLEESGGGLVQAGGSLRLSCVGPGFLLRSNTMGWYRQAPGKERELVAFIRPSGLTNYNDAVQGRFTISRDNAKNTVYLQMNALKPEDTAVYYCHTRPPFQRDSWGQGTQVTVSS
Human serum albumin [1]
  binding result: binds

B2: B39-R28 (bispecific antibody, not shown: small tags and cut ends)
chain: QVQLVESGGGLVQAGGSLRLSCAASGLTFSRYVMGWFRQAPGKEREFVAAITWGGTPNYADSVKGRFTISRDNSKNTQYLQMNSLKPEDTAVYYCAAGLGWDSRYSQSYNYWGQGTQVTVSSGGGGSGGGGSGGGGSGGGGSGGGGSQVQLVESGGGLVQAGGSLRLSCVASGRTFIAYAMGWFRQAPGKEREFVAAITNFAGGTTYYADSVKGRFTISRDNAKTTVYLQMNSLKPEDTALYYCAADRSAQTMRQVRPVLPYWGQGTQVTVSS
Human serum albumin [1]
  binding result: binds

B3: B39-M75 (bispecific antibody, not shown: small tags and cut ends)
chain: QVQLVESGGGLVQAGGSLRLSCAASGLTFSRYVMGWFRQAPGKEREFVAAITWGGTPNYADSVKGRFTISRDNSKNTQYLQMNSLKPEDTAVYYCAAGLGWDSRYSQSYNYWGQGTQVTVSSGGGGSGGGGSGGGGSGGGGSGGGGSQVQLVESGGGFVQAGGSLRLSCAASGRTFDNYVMAWFRQAPGKEREFVASISGSGSITNYANSVKDRFTISRDSAKNAIYLQMNSLKPEDTALYYCAAGSRRTYYREPKFYPSWGQGTQVTVSS
Human serum albumin [1]
  binding result: binds

B4: B39-M79 (bispecific antibody, not shown: small tags and cut ends)
chain: QVQLVESGGGLVQAGGSLRLSCAASGLTFSRYVMGWFRQAPGKEREFVAAITWGGTPNYADSVKGRFTISRDNSKNTQYLQMNSLKPEDTAVYYCAAGLGWDSRYSQSYNYWGQGTQVTVSSGGGGSGGGGSGGGGSGGGGSGGGGSQVKLEESGGGLVQAGGSLKLSCAASGSTFSSSSVGWYRQAPGQQRELVAAITSGGSTNTADSVKGRFTMSRDNAKNTVYLQMRDLKPEDTAVYYCNVAGRNWVPISRYSPGPYWGQGTQVTVSS
Human serum albumin [1]
  binding result: binds

B5: B39 (VHH, not shown: small tags and cut ends)
VHH: QVQLVESGGGLVQAGGSLRLSCAASGLTFSRYVMGWFRQAPGKEREFVAAITWGGTPNYADSVKGRFTISRDNSKNTQYLQMNSLKPEDTAVYYCAAGLGWDSRYSQSYNYWGQGTQVTVSS
notes: also called B39-HA-His6; B39 control
Human serum albumin [1]
  binding result: no binding (tested: not printed (single concentration))

B6: R11 sdAb (VHH)
VHH: QVKLEESGGGLVQAGGSLRLSCVGPGFLLRSNTMGWYRQAPGKERELVAFIRPSGLTNYNDAVQGRFTISRDNAKNTVYLQMNALKPEDTAVYYCHTRPPFQRDSWGQGTQVTVSS
notes: also called R11 VHH
Human serum albumin [2]
  Kd: 93 nM
Rhesus serum albumin [3]
  Kd: 159 nM
Rat serum albumin [4]
  Kd: 61.7 nM
Human serum albumin [5]
  Kd: 93.1 nM
Rhesus serum albumin [6]
  Kd: 159 nM
Rat serum albumin [7]
  Kd: 61.7 nM
Mouse serum albumin [8]
  Kd: 14 nM
Human serum albumin [9]
  Kd: 28.9 nM
Rhesus serum albumin [10]
  Kd: 116 nM
Rat serum albumin [11]
  Kd: 29.9 nM
Human serum albumin [12]
  Kd: 29 nM
Rhesus serum albumin [13]
  Kd: 116 nM
Rat serum albumin [14]
  Kd: 30 nM

B7: R28 sdAb (VHH)
VHH: QVQLVESGGGLVQAGGSLRLSCVASGRTFIAYAMGWFRQAPGKEREFVAAITNFAGGTTYYADSVKGRFTISRDNAKTTVYLQMNSLKPEDTALYYCAADRSAQTMRQVRPVLPYWGQGTQVTVSS
notes: also called R28 VHH
Human serum albumin [2]
  Kd: 12 nM
Mouse serum albumin [15]
  Kd: 160 nM
Rhesus serum albumin [3]
  Kd: 38 nM
Rat serum albumin [4]
  Kd: 0.4 nM
Human serum albumin [5]
  Kd: 12.1 nM
Rhesus serum albumin [6]
  Kd: 38.2 nM
Rat serum albumin [7]
  Kd: 0.4 nM
Human serum albumin [9]
  Kd: 1.8 nM
Rhesus serum albumin [10]
  Kd: 5.9 nM
Rat serum albumin [11]
  Kd: 0.3 nM
Human serum albumin [12]
  Kd: 1.8 nM
Rhesus serum albumin [13]
  Kd: 6 nM
Rat serum albumin [14]
  Kd: 0.3 nM

B8: R28-H3 (VHH)
VHH: B7 VHH with A14P, V23A, A76S, T78N, V80L, K88R, P89A, L94V, Q121L
Human serum albumin [5]
  Kd: 51.3 nM
Rhesus serum albumin [6]
  Kd: 625 nM
Rat serum albumin [7]
  Kd: 2.4 nM
Human serum albumin [9]
  Kd: 47.2 nM
Rhesus serum albumin [10]
  Kd: 1270 nM
Rat serum albumin [11]
  Kd: 1.8 nM

B9: R28-H4 (VHH)
VHH: B7 VHH with A14P, V23A, V80L, K88R, P89A, L94V, Q121L
Human serum albumin [5]
  Kd: 11.5 nM
Rhesus serum albumin [6]
  Kd: 1740 nM
Rat serum albumin [7]
  Kd: 1.1 nM
Human serum albumin [9]
  Kd: 51.6 nM
Rhesus serum albumin [10]
  Kd: 341 nM
Rat serum albumin [11]
  Kd: 5.3 nM

B10: R28-H5 (VHH)
VHH: B7 VHH with A14P, V23A, K88R, P89A, L94V, Q121L
Human serum albumin [5]
  Kd: 11.1 nM
Rhesus serum albumin [6]
  Kd: 145 nM
Rat serum albumin [7]
  Kd: 0.4 nM
Human serum albumin [9]
  Kd: 2 nM
Rhesus serum albumin [10]
  Kd: 7.3 nM
Rat serum albumin [11]
  Kd: 3.5 nM

B11: M79-H4 (VHH)
VHH: QVQLVESGGGLVQPGGSLRLSCAASGSTFSSSSVGWYRQAPGQQRELVAAITSGGSTNTADSVKGRFTISRDNSKNTLYLQMNSLRAEDTAVYYCNVAGRNWVPISRYSPGPYWGQGTLVTVSS
Human serum albumin [5]
  Kd: 58.9 nM
Rhesus serum albumin [6]
  Kd: 38.7 nM
Rat serum albumin [7]
  Kd: 10 nM
Human serum albumin [9]
  Kd: 8.4 nM
Rhesus serum albumin [10]
  Kd: 2.9 nM
Rat serum albumin [11]
  Kd: 8.8 nM

B12: M79 sdAb (VHH)
VHH: QVKLEESGGGLVQAGGSLKLSCAASGSTFSSSSVGWYRQAPGQQRELVAAITSGGSTNTADSVKGRFTMSRDNAKNTVYLQMRDLKPEDTAVYYCNVAGRNWVPISRYSPGPYWGQGTQVTVSS
notes: also called M79 VHH
Human serum albumin [2]
  Kd: 122 nM
Rhesus serum albumin [3]
  Kd: 85 nM
Rat serum albumin [4]
  Kd: 13 nM
Human serum albumin [5]
  Kd: 122 nM
Rhesus serum albumin [6]
  Kd: 84.6 nM
Rat serum albumin [7]
  Kd: 12.6 nM
Mouse serum albumin [8]
  Kd: 406 nM
Human serum albumin [9]
  Kd: 7.1 nM
Rhesus serum albumin [10]
  Kd: 2 nM
Rat serum albumin [11]
  Kd: 7.1 nM
Human serum albumin [12]
  Kd: 7 nM
Rhesus serum albumin [13]
  Kd: 2 nM
Rat serum albumin [14]
  Kd: 7 nM

B13: M79-H2 (VHH)
VHH: B11 VHH with Q1E, Q43K, Q44G, R45L, A49S
Human serum albumin [5]
  Kd: 76.2 nM
Rhesus serum albumin [6]
  Kd: 62.1 nM
Rat serum albumin [7]
  Kd: 10.4 nM
Human serum albumin [9]
  Kd: 6.5 nM
Rhesus serum albumin [10]
  Kd: 2.6 nM
Rat serum albumin [11]
  Kd: 5.9 nM

B14: M79-H3 (VHH)
VHH: B11 VHH with Q1E, Q43K, A49S
Human serum albumin [5]
  Kd: 53.3 nM
Rhesus serum albumin [6]
  Kd: 36.7 nM
Rat serum albumin [7]
  Kd: 8.7 nM
Human serum albumin [9]
  Kd: 9.6 nM
Rhesus serum albumin [10]
  Kd: 2.9 nM
Rat serum albumin [11]
  Kd: 12.2 nM

B15: M79-H5 (VHH)
VHH: B11 VHH with S74A, L78V
Human serum albumin [5]
  Kd: 103 nM
Rhesus serum albumin [6]
  Kd: 86.5 nM
Rat serum albumin [7]
  Kd: 20.2 nM
Human serum albumin [9]
  Kd: 8.1 nM
Rhesus serum albumin [10]
  Kd: 4.2 nM
Rat serum albumin [11]
  Kd: 6.6 nM

B16: H18 sdAb (VHH)
VHH: QVQLVESGGGLVQAGGSLRLSCTASGSIESINRMAWYRQAPGQQREFVARISKGGSTNYPDSVKGRFTISRDNAKNTVYLQMNSLKPEDTAVYYCAAGPVWEQFWGQGTQVTVSS
notes: also called H18 VHH
Human serum albumin [2]
  Kd: 34 nM
Rhesus serum albumin [3]
  Kd: 48 nM
Human serum albumin [5]
  Kd: 33.9 nM
Rhesus serum albumin [6]
  Kd: 47.6 nM
Rat serum albumin [7]
  binding result: no binding
Human serum albumin [9]
  Kd: 46.2 nM
Rhesus serum albumin [10]
  Kd: 42.2 nM
Human serum albumin [12]
  Kd: 46 nM
Rhesus serum albumin [13]
  Kd: 42 nM

B17: Rh34 sdAb (VHH)
VHH: QVKLEESGGGLVQAGGSLRLSCAASGRTISLYAVGWFRRAPGKEREFVAAISWTDSSTYYADSVKGRFTISRDNAKNTVYLGMNSLNPEDTAVYYCAADVSIRGLQKYEYDYWGQGTQVTVSS
notes: also called Rh34 VHH
Human serum albumin [2]
  Kd: 286 nM
Rhesus serum albumin [3]
  Kd: 333 nM
Human serum albumin [5]
  Kd: 286 nM
Rhesus serum albumin [6]
  Kd: 333 nM
Rat serum albumin [7]
  binding result: no binding
Human serum albumin [9]
  Kd: 129 nM
Rhesus serum albumin [10]
  Kd: 167 nM
Human serum albumin [12]
  Kd: 129 nM
Rhesus serum albumin [13]
  Kd: 167 nM

B18: Rh46 sdAb (VHH)
VHH: QVKLEESGGGLVQAGGSLRLSCTASTRTFSSYIMGWFRQAPGKERELVAAISWSGRMTHYADSVKGRFAISRDNAKNTVYLQMNVLKPEDTAIYSCAADRTTAWGAPRSQYDSWGQGTQVTVSS
notes: also called Rh46 VHH
Human serum albumin [2]
  Kd: 80 nM
Rhesus serum albumin [3]
  Kd: 81 nM
Human serum albumin [5]
  Kd: 80.1 nM
Rhesus serum albumin [6]
  Kd: 80.8 nM
Rat serum albumin [7]
  binding result: no binding
Human serum albumin [9]
  Kd: 41.3 nM
Rhesus serum albumin [10]
  Kd: 29.6 nM
Human serum albumin [12]
  Kd: 41 nM
Rhesus serum albumin [13]
  Kd: 30 nM

B19: R28-H1 (VHH)
VHH: EVQLVESGGGLVQPGGSLRLSCAASGRTFIAYAMGWFRQAPGKGLEFVSAITNFAGGTTYYADSVKGRFTISRDNSKNTLYLQMNSLRAEDTAVYYCAADRSAQTMRQVRPVLPYWGQGTLVTVSS
Human serum albumin [5]
  Kd: 162 nM
Rhesus serum albumin [6]
  Kd: 2710 nM
Rat serum albumin [7]
  Kd: 5.3 nM
Human serum albumin [9]
  Kd: 15.2 nM
Rhesus serum albumin [10]
  Kd: 28.7 nM
Rat serum albumin [11]
  Kd: 6.5 nM
